Fold increase of luciferase expression, split transcription factor, rapalog data for one substance are collected here from US20220380801A1, “TRIPARTITE SYSTEMS FOR PROTEIN DIMERIZATION AND METHODS OF USE” (priority 2019, published 2022).

The target of the experiment is DBD-FKBP12 (three tandem copies) (UniProt P62942). Put plainly: cell-based or functional assay.
DBD-FKBP12 (three tandem copies), sequence (P62942 other isoform, or with tags, fused parts or gaps limits assumed): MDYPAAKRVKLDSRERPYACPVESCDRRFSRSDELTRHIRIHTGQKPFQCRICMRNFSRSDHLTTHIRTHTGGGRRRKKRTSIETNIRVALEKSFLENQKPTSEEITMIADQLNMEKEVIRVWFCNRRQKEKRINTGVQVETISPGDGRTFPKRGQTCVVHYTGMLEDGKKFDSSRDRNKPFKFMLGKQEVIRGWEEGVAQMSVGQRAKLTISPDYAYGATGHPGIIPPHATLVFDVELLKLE

FRB-AD (from UniProt P42345 2021-2113) yielded a fold increase of luciferase expression, split transcription factor, rapalog of 30 fold.
